The values that follow come from patent US20230201365A1 (BRIGHT PEAK THERAPEUTICS, published 2023).

For experiment [1], the target named is T1, Recombinant Human Fc gamma RIIIA/CD16a Protein (human, UniProt P08637 17-208).
T1 construct: Bought recombinant protein; also called hu FcγRIII (CD16a); huFcgRIII
Description: ELISA, antibody coated at 2.5 ug/ml, soluble Fc gamma receptor titrated, HRP detection; mean EC50. The procedure:
(§1) To analyze Fc Receptor gamma binding test molecules were diluted to 2.5 ug/ml in PBS and plates were coated overnight at 4° C. The next day the assay plates were washed four times with 100 ul of wash buffer: PBS+0.02% Tween 20 and blocked with PBS+1% BSA, for one hour at 37° C., with shaking at 600 RPM. The blocked plates were then washed four times with 100 ul wash buffer. Diluted FcRgamma (Reagents listed, below) was freshly diluted in wash buffer. Plates were then incubated with 25 ul of diluted Fc for two hours with shaking at 600 RPMs, then washed with 100 ul wash buffer, four times. The wells were then incubated with 25 ul of either 1:500 diluted streptavidin-Horseradish peroxidase (HRP) for detection of human FcgR or 1:500 diluted Anti-HIS tag antibody-HRP in wash buffer. The HPR detection molecules were incubated in the wells at room temperature for one hour with shaking at 600 RPMs. Plate wells were washed with 100 ul of wash buffer, four times. Plates were detected using the chromogenic HRP substrate 3,3′,5,5;-tetramethylbenzidine (TMB). Samples were read using a spectrophotometer plate reader with OD set to 450 nm. Reagents: Recombinant Mouse Fc gamma RI/CD64 Protein, CF R&D Systems #2074-FC-050; Recombinant Human Fc gamma RI/CD64 Protein, CF R&D Systems #1257-FC-050; Recombinant Mouse Fc gamma RIII/CD16 Protein, CF R&D Systems #1960-FC-050; Recombinant Human Fc gamma RIIA/CD32a (H167) Protein, CF R&D Systems #9595-CD-050; Recombinant Mouse Fc gamma R4/CD16-2 Protein, CF R&D Systems #1974-CD-050; Recombinant Human Fc gamma RIIIA/CD16a Protein, CF R&D Systems #4325-FC-050; Recombinant Human Fc gamma RIIB/CD32b Avi-tag Protein, CF R&D Systems #AVI1875-050; Recombinant Mouse Fc gamma RIIB/CD32b Protein, CF R&D Systems #1460-CD-050; His Tag Horseradish Peroxidase-conjugated Antibody, R&D Systems #MAB050H; Streptavidin-HRP, Sigma #RABHRP3-600 µL.
(ELISA stands for enzyme-linked immunosorbent assay.)

Experiment [2] addresses T2, Recombinant Human Fc gamma RIIB/CD32b Avi-tag Protein (human, UniProt P31994 46-217).
T2 construct: Bought recombinant protein with Avi-tag; also called hu FcγRIIb (CD32b); human CD32b
T2 sequence (looked up): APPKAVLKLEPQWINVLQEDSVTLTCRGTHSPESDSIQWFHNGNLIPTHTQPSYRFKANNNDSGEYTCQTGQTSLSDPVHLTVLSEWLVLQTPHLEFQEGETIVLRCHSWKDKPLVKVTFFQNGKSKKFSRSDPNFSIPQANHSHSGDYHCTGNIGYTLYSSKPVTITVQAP
Described as above. As to the method:
as §1

Experiment [3] addresses T3, Recombinant Human Fc gamma RIIA/CD32a (H167) Protein (human, UniProt P12318 36-218).
T3 construct: Bought recombinant protein; H167 variant as printed; also called hu FcγRIIa (CD32a); human CD32a
T3 sequence (looked up): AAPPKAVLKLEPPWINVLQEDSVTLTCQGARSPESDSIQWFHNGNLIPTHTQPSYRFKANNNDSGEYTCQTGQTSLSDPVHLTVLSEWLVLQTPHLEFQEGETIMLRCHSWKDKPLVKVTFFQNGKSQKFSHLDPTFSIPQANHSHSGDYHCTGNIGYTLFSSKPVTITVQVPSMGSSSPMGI
The experiment is described as above. As to the method:
as §1

The target in experiment [4] is T4, Recombinant Mouse Fc gamma RIII/CD16 Protein (mouse, UniProt P08508 31-215).
T4 construct: Bought recombinant protein; also called mu FcγRIII (CD16); murine CD16
T4 sequence (looked up): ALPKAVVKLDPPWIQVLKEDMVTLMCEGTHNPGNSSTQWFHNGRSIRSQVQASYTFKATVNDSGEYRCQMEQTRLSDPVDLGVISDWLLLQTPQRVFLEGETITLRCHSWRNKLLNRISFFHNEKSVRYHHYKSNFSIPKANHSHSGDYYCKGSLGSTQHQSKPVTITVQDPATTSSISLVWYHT
Described as above. The procedure: as §1

Experiment [5] addresses T5, Recombinant Mouse Fc gamma RI/CD64 Protein (mouse, UniProt P26151 25-297).
T5 construct: Bought recombinant protein; also called mu FcγRI (CD64); murine CD64
T5 sequence (looked up): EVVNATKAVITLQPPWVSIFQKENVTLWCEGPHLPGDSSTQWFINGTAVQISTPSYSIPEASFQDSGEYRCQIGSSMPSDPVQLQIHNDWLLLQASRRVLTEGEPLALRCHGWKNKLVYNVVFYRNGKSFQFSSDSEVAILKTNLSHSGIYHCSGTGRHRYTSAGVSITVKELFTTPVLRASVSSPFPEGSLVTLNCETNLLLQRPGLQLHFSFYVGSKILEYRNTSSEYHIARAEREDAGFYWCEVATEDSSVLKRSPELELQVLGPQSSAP
The experiment is described as above. The procedure: as §1

In experiment [6] the target is T6, Recombinant Human Fc gamma RI/CD64 Protein (human, UniProt P12314 16-288).
T6 construct: Bought recombinant protein; also called hu FcγRI (CD64)
The experiment is described as above. The procedure:
as §1

Experiment [7] addresses T7, recombinant biotinylated CD20 (human) (human, UniProt P11836 1-297, limits assumed, biotinylated (site not stated)).
T7 construct: also called hu CD20; B-lymphocyte antigen CD20
T7 sequence: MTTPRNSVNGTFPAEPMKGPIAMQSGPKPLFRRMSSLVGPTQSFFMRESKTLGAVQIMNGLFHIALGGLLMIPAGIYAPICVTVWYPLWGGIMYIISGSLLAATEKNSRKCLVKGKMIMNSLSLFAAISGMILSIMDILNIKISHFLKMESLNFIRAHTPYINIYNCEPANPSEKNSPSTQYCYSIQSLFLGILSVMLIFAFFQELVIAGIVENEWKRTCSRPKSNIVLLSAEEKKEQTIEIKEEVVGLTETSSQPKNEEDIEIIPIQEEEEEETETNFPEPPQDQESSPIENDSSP
Description: ELISA, antibody coated on plate, biotinylated recombinant CD20 titrated, streptavidin-HRP detection; mean EC50. The procedure:
(§2) The interaction of the unmodified and of conjugated anti-CD20 antibodies with CD20 were measured by ELISA assay. […] Plates were washed four times with 100 μl of PBS-0.02% Tween20. and blocked with 25 μl of PBS-0.02% Tween20-1% BSA at 37° C. with shaking at 600 RPM, for 1 h. Plates were then washed four times with 100 μl of PBS-0.02% Tween20. 25 μl of recombinant biotinylated CD20 were added in seven-fold serial dilutions starting at 18 nM down to 10 pM into PBS-0.02% Tween20-0.1% BSA and incubated at 37° C. during 2 h. Plates were then washed four times with 100 μl of PBS-0.02% Tween20. 25 ul of Streptavidin-Horseradish peroxidase (#RABHRP3, Merck, Buchs, Switzerland) diluted at 1:500 into PBS-0.02% Tween20-0.1% BSA were added to each well and incubated at room temperature for 30 min. Plates were then washed four times with 100 μl of PBS-0.02% Tween20. Fifty microliters of TMB substrate reagent (#CL07, Merck, Buchs, Switzerland) were added to each well and incubated at 37° C. during 5min After 5 min at 37° C., Horseradish peroxidase reaction is stopped by adding 50 μl/well of 0.5M H₂SO₄ stop solution. ELISA signal is then measured at 450 nm on an ENSPIRE® plate reader from Perkin Elmer (Schwerzenbach, Switzerland).

The target of experiment [8] is T7, recombinant biotinylated CD20 (human). Briefly: ELISA, antibody coated on the plate, biotinylated CD20 titrated, streptavidin-HRP detection, OD 450 nm. The procedure: as §2

T6 sequence (P12314 16-288 limits assumed): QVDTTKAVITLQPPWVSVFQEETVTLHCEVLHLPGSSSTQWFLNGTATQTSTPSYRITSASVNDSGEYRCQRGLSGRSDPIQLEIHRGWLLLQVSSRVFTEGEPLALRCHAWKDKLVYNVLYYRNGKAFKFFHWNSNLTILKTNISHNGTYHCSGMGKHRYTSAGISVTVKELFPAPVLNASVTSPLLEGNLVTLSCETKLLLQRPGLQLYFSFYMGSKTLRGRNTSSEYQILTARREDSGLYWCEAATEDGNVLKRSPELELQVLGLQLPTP
T1 sequence (P08637 17-208 limits assumed): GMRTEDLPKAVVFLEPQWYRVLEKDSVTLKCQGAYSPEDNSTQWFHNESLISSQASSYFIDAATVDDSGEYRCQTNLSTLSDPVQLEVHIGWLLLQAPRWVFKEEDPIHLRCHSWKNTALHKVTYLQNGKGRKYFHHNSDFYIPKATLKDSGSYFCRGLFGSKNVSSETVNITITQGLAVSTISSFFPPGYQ

B1: biosimilar Rituximab (unconjugated parent anti-CD20 antibody) (antibody, human IgG1, kappa)
heavy: not shown
light: QIVLSQSPAILSASPGEKVTMTCRASSSVSYIHWFQQKPGSSPKPWIYATSNLASGVPVRFSGSGSGTSYSLTISRVEAEDAATYYCQQWTSNPPTFGGGTKLEIKRTVAAPSVFIFPPSDEQLKSGTASVVCLLNNFYPREAKVQWKVDNALQSGNSQESVTEQDSKDSTYSLSSTLTLSKADYEKHKVYACEVTHQGLSSPVTKSFNRGEC
notes: The antibody tested is a biosimilar of rituximab; also called aCD20 AB; parent antibody
As usually defined, the EC50 is the concentration that produces a half-maximal response. A word on the EC50 (read off the curve): it is the midpoint of the concentration-response curve. As for B1, the EC50 stood at 185 nM in experiment [1]; 880 nM in experiment [2]; 740 nM in experiment [3]; 133 nM in experiment [4]; 35 nM in experiment [5]; 0.23 nM in experiment [6]. Also, the EC50 in experiment [7] came out at 0.08 nM. In experiment [8], the “EC50 (read off the curve)” value is roughly 0.04 nM.
